# Laboratory results published in patent US6586236.
# Biological target: goat anti-mouse kappa light chain IgG (Southern Biotech)
# Test: phage panning of 1:1 W100/R100 mixture on coated wells, oligonucleotide hybridization of plaque lifts
substance,measurement,value
DB3 R100 VH/κ-gpVIII fusion polypeptide displayed on JC-M13-88 phage (from UniProt P69541 24-73) (scFv),"% DB3 R100 variant in DB3 phage eluted, 2 rounds of panning",82.1%
same,"% DB3 R100 variant in DB3 phage eluted, 3 rounds of panning",79.2%
